Here are results for 20 sequences from a protein production outcome set (Wang et al. 2014).

The data set can be described thus: label from the status in PepcDB records.
Take “MNRRKISALLLSCTLAMNISSFNEIVLADENKGEEVQKESHNESNCIAGDYHEVNNGNAKNTENTPVINGIKVNKQLIDINYSQGVTINPKYIVIHDTDNRQAGANAMANRNYFANHPNAKASAHYIIDEGNIIQALEDTWKGWHVGDGNNPNINNSTTIAIELCVNKENDFDKTLENGIELTKYLVNKYNIPAENVVMHRDASGKTCSRMMIEDRPSLWPYFKERISGGDGSLEDDGLKPKMQGKVTNASVLNVRESPSTSGRIVHKLNRNQVVGIYEELNGWYKIDYIDGVKKKYGYVSKDYISIINENPEDEETNGDIEIEKPSVSVNKQGIVKVNSALNMRSGPGSNYGVIGTLRNNDEVEIIKEVDGWYEIKFNGKSGYVSSQYIKVLDNESNEEKPVEPEKPSVSLNKQGVVKVNSALNMRSGPGSNYGVIGTLRNNDEVEIIKEVDGWYEIKFNGKSGYVSSQYIKVLDNESNEEKPVEPEKPSVSLNKQGVVKVNSALNMRSGPGSNYGVIGTLRNNDKVEIIKEVDGWYEIRFNGKVGYASKSYITIVNEGSNNGTDSVIKEGTVYGVSTNLNVRTGPGTSYQVIGYLLSGDKVKILGDENGWYKVQFNASTGTKNGYVSKDYIKV”: the protein production result is given as “failed”. As for “MNRRVVIVTAVHGPSAPFLPEAYASLCAQELPDGWEWRWVIQEDGRTQDVRPHVPDDPRVVFHQGRHGRQGGPGVARTMALAHADGAYVKVLDADDRLTPGALARDLAALEADPSIGWATSRVLDLLPDGSTAGFPGDPAHGPIERGEVLDFWRANGFRAQVHPATLLVRRDLLLAVGGWMALPASEDTGLLLALNCVSRGWFTEDVGLLYRKWEGQETGQASHVDPAERDARMTVVEARARALASFGWRLPEGTGDFDHLEHHHHHH”, the protein production entry is “failed”.

With “MNRSFNIIISFKFIFWNMKSKPMNVIFDVLNEIHGFFGALWAGAALLNFLIKPQDKRQFERIGRFFLITSIITIITGIIIFAYIYLAPYQGNLFLVAAILRSSLDIRIRAFLNLIGGAFGLLAFGAGIVISNRIRLMVRVKEGDVTILELRNSVSNLSKISLVFLLISLAMMILAGSIAQVIT”, the protein production result is listed as “failed”. To “MNRSRDKVRCALNHQNAGSIPVDFGSTAVTGIHCRIVEALRNYYGLAPRPVKIVDAFQMLGEIDAELAEKIGVDCIGIGGPKDIFDLDTTRMHEQTTPWGQRVLVPEAMDLTPDMRGDVYVYAGGDQNYPPSAVMPKGCYFINAIERQQPIEEDRLDPEDNVEEFGLLTENDLAYYCAEADKAYQTGRAVVASFGGTALGDVAFVPGMGLKQPKGIRSVVEWYMSTAMRQDYLHQVFEKEIDIAIANYEKLWAALGDKIDVVLTCGTDFGSQESQFCSIDTFRELWLPHYRRMNDWIHQHTTWKIFKHSCGAIIPILPGLIEAGFDIINPVQINAKDMDSRRLKEEFGSQLTFWGGGVDTQKILPFGTPDEIRRHVMGQCEILGRDGGFVFNAVHNVQANVPVDNVVAMFDALKDISLEHHHHHH” belongs “failed”; to “MNRVKDKRLWLSIVGITGLGLLSGLFSVNAREYYQALRLPSFAPPGWLFGPVWLVLYIFMGITFYFILVHPNKQQKKRMITLFILQFIANFFWTFFFFSLQNNLLSVIDISLLWLLLIIQQWDYLRYKLITRGWLMIPYILWVTFAAALNYSILFLN”, “not failed”; to “MNSCVLFAEVIQGPELRYTQENQMAVATMVVQFASLRSEEPPMSLRTVAWGNLGQKMHAECKVGDRLILEGRLKMDTIDRPEGFKEKRAELVVSRFYTVDGNIVDHPAQPAATVPVTPRVAPPPPEFEDISLDEVPFLEHHHHHH”, “not failed”. To “MNSEKDVMADASAMRTSMHALAVYGATPLFVLLWSGGAIFSRVGLSHASPFAFLTLRFVIALPLLAAIGVARRCMLPAPGTRVRVAVTGALMIGGYSISYLLALDFGMTPGVLATVLGVQPILTLLWMERRVSVARLAGLTLALAGLVTIVADSLMAARFSMAGWGAALAALACMTVGAIGQKGIRQAAVEILPLQYTVALAMCLLCVPFQPFRFEHVPGFFFPLLWMGIVISVVATLLFYRLIQAGNLVNVTSLFYLVPPVTVLLDFVALSNRPAPLALVGMIAIPVGLALAFRAGR” belongs “failed”; to “MNSELFQKLAKAQTDEERSWIVTESLLATLSPELAAAAWAAVVPHWFNAEILAALRPELQAQSSQLYTKLQALSFVEEFADRGHDVHDLTRNLMLKHLWQEHQDEFITLSQRAAEYFGRNNQQPETQIEWLYHLIVVDREWKGSEFWNLAQNWDNSFRVAELESLIAALLEQIAAERVETLAKAEVYYWAGKAKFRVYKAKEALERYEEALAFYRNIGVSEAPPVEARLGEANTLQAIGDVLQFLDRRTEALERYEEALAFYRDIGDRLGEANTLRAIGDVLQFLDRRTEALERYEEALAFYRDIGARLGEANTLQAIGDVLQFLKRSTEALERYEEALAFYRDIGDRLGEANTLRAIGDVLQFLDRRTEALERYEEALAFYRDIGARLGEANTLKAIGDVLQFLKRSTEALERYEEALAFYRDIGARLGEANTLRAIGDVLQFLDRRTEALERYEEALAFYRDIGDRLGEANTLRAIGDVLQFLKRSTEALERYEEALAFYRDIGDRLGEANTLRAIGDVLQFLKRSTEALERYEEALAFYRDIGDRLGEANTLQAIGILQDDLTVGLEYCQAALELYRQIGTKYSQSRNLIYFTSTILLKLERQTEAIDALNRAIELAKEIPYQYFVEDALAKLKKIQSSDSNI”, “failed”; to “MNSFPAQNLMLSATNANKDSGLRTSNAHWLHSCIAVPKTTGIDLSQEPPAEGVMVPQSHLFPPPIRDSRNDTETVKQKSVNQSPSKALKPKPQRKKRSVSNKSKKTPSIPETKREKKNLDINIDISSFDTSGVPPPVCSCTGVSRVCYKWGMGGWQSSCCTISISTYPLPMSTTRPGARLAGRKMSNGAYVKLLARLADEGYDLSHPLDLKNHWARHGTNKFVTIK”, “failed”. Then “MNSFYSQEELKKIGFLSVGKNVLISKKASIYNPGVISVGNNVRIDDFCILSGKVTIGSYSHIAAYTALYGGEVGIEMYDFANISSRTIVYAAIDDFSGNALMGPTIPNQYKNVKTGKVILKKHVIIGAHSIIFPNVVIGEGVAVGAMSMVKESLDDWYIYVGVPVRKIKALEHHHHHH”, with “not failed”; and “MNSHMLVSSEIDIGLNKSNIERPPGSKKRTKHLPCEVPLAESADRILEPQDYLNFTRFSLGFVETETYDNPRFGGHQTLSERERSYSAVNQTIHCGFVKGTGFDLSEKDRAYMKNCVVSVSSCIFGSSDFLRRPATKKISEFSKRNVCFVMFVDEQTLSKLASEGHVPDKQGFVGLWKTVVVSNLPYNDMRKTGKVPKFLSHRLFPSSRYSIWLDSKMRLTTDPMLIIDFFLWRTKSEFAISNHYDRHCVWDEVLQNKRLNKYNHSAIDEQFMFYRSDGLKKFDPSDPNSPLPSYVPEGSFIVRAHTPMSNLFTCLWFNEVDRFTSRDQLSFAYTYLKLQRLNSDRPLRLNMFKDCERRALTKLFHHRVDSSPPSPPT”, with “not failed”. Take “MNSIKTPLLFLLIAFSSIFQSFSAGKPLGYEIKATIKGVKQADTVYLARYYADKRFYQDTAIADAKGFVSFSDTTHLKEGMYFLLLPGQKVFDFILNPSTLSFSIDTTNLIKSAHFKNSPDNTAFYDYQRFFMNQKTKADSINNLMKSAAATQKTVLTKQLSDIDSTMLAYIQNFLKTNPNSLFTAILKTTKDVDVPPAPKKADGSIDSSWQFHYYKKHYFDNVNFSDDRLIRTPVLVNKVDGYFKNLVVQRPDSIIKEIDMIISKCNPKGDLFEYYVREYTYKYETSQVMGMDAVFVHLGKEYYMKGKCFWATPETVKKIKERVDLLDPLLLGKKAPNLYMTDTTGTYRYLYDVQAKYTILFFWDSQCGHCQQETPKLYDWWLKNRAKGIQVYAANIERKDEEWLKFIRSKKIGGWLNVRDSKNHTDFKITYDIYATPVLYVLDKNKVIIAKRIGYENLDDFLVQYEKSLKTK”: the protein production result is recorded as “failed”. For “MNSIQIADETYVAADAARVSAAVADRCSWRRWWPDLRLQVTEDRADKGIRWTVTGALTGTMEIWLEPSMDGVLLHYFLHAEPTGVAAWQLARMNLARMTHHRRVAGKKMAFEVKTVLERSRPIGVSPVT”, the protein production entry was “failed”.

For “MNSLINIFNQYSELAIFISLFISVIIALLGIVPSVFVTGANIVFFGPINGFLISLLGEVIGGWISFKVYRKGINKFAGNIEGKYELIDKIVKSEGRNVGILIFEGRLIPFIPSGLVTLAAAMSKVNSFTFIISTFLGKIPSILLEVLASYGVIMASQKNLKLVIGVLSLILFLLTLKKLKDKTNKK”, the protein production result is “failed”. As for “MNSLLFVYGTLRKHEKNHHLLAQSACINEQARTKGSLFAAKEGPTVVFNDEDEGYIYGEVYEADELCIHKLDQFFQGYHKQTVFVETDVGIKIALIYFMNKDGCAGFTKISSGDWKEHQMISKSKNPIYYFAYGSCMDNARFQKAGVDHYFQDPVGRAVLKGYTTRFTLKREDGSRADMLEDGGTTEGVLYRIPYSALSYLYKREGVESLTYRPAFVDVEAGGRHYKDCLTFLVLQKEAEIAPPQHYQIEIERGAELYLSPEFTEKLKRHMNSLPKGLEHHHHHH”, the protein production entry was “not failed”.

As for “MNSLPRPDIGPFADTPEKRWVGVSFGAAAVGYDGVAALQREVGESLLAGIRHLGPPPARMLDLGAGTGHFSGLLVAAFPTAECLALDIAEGMLRFLRSHRPGADGMGLVVGDAEALPLADESVDLIFSNMAFQWCERLDRAISECCRVLRPGGRLAFSTFGEATLAELRMAWRAVDGYTHVNAFATRRSVEQELRAQGFTKIRLDARTLRRGYPSVLALMKELKALGARNLTRNRPRHLLSRHTLERVSEAYGRLPGMASAVTASFEVLTALVEK”, the protein production entry is recorded as “failed”. As for “MNSLSVIKPNNAMPMTAEYRQSIRTALKTSLYPGASDTSVDMVLAYCQAADLDPMTKPVHIVPMWIPEKKVDGRVMSSAGMRDVIMPGIELYRTKAHRTGEYAGQDEAVFGDTVCETLGGVQIRYPSWCRIAVYRMVAGERVRFAATVYWLEAYATARKDSPAPNSMWQKRPFGQLEKCAEALALRKAFPEAVGAQPTAEEMDAGRHTIEGETIHVAPIPVNKDIRDISGPYPQEEFEKNFPKWCDLIESGKTTADRIITMLHSKGKGQLSLEQLTAIRACAEDTSAEPVPTDNTPQESNTTDTEENT”, the protein production entry was “not failed”.

Regarding “MNSNIYAVIVTYNPELKNLNALITELKEQNCYVVVVDNRTNFTLKDKLADIEKVHLICLGRNEGIAKAQNIGIRYSLEKGAEKIIFFDQDSRIRNEFIKKLSCYMDNENAKIAGPVFIDRDKSHYYPICNIKKNGLREKIHVTEGQTPFKSSVTISSGTMVSKEVFEIVGMMDEELFIDYVDTEWCLRCLNYGILVHIIPDIEMVHAIGDKSVKICGINIPIHSPVRRYYRVRNAFLLLRKNHVPLLLSIREVVFSLIHTTLIIATQKNKIEYMKKHILATLDGIRGITGGGRYNA”, the protein production result was “failed”. To “MNSNPFVSVVMSVYNGGEFLKDAINSILSQSYKNFEFIIINDGSSDNFSEILELYDDERIKVLNNQENKGLVYSLNRGLLESIGKYIVRMDADDISLPNRIEKQVEFMEREPEVGVCGSYIEIFGDTIKRKVQRFPSNVNVNEAFLLFSTCLAHPSVIIRKSIVDKYKLRYDDRYLHAEDYAIWCQAVKYTKISNIREVLLKYRILESSVTRQANKNFQSRFDVHKSIYKDIFRNKGIDYTEKELYLHFIISDNNRFRNQALTIRPSEINAHLTKILSHYRGASNYKYIAFLVNKRGLSLSRWYSESRGFYFIMYLFKFLYYKIQIKKLEHHHHHH” belongs “failed”.

With “MNSRMKIKKAYEYMKSFHQHDTTGHDIAHVERVYNNACYIAKRENITDTLVIELSSLLHDTVDSKLTDEILAYDQLKQFLSTLDLSSEISQQVLYIIKHMSYRAGKNNHVKLSIDGEIVRDADRLDAIGAIGIARTFQFSGHFGEPMWTETKLSNEELHTSLVEELDNSAIKHFYEKLFKLKDLMHTPTAKKLAEERHQFMIQYLKQFMSEWNFNKELEHHHHHH”, the protein production entry was “not failed”.
